According to patent US20100203083A1:

Columns and labels:
[1] = target: AAV-amyloid-453-587 (AAV-2; human) (UniProt P03135)
[2] = target: purified αVβ3 integrin (CHEMICON) (UniProt P06756)

## anti-β-amyloid mAb 6E10 (CHEMICON) (antibody)
[1]
  fold higher affinity against the I-587-insertion mutant (AAV-amyloid-587): > 2 fold

## AAV2 RGD4C 453 A2 (from UniProt P03135 1-453; P03135 454-735) (other; other documents disagree on this pair)
[2]
  fold increase of binding activity against RGD4C 453: 50 fold
